Experimental findings from the supplement of paper PMC10598134 are described below.

± gives the standard deviation.

The nature of the data set: collision cross section of modified peptide (TIMS, N2, iRT-aligned); higher = larger / more extended gas-phase ion. Summed up: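 Collision cross section was derived from the Mason-Schamp equation. Each value averages 1–3 technical replicates of the most abundant feature per charge state, measured on a timsTOF Pro/HT in dda-PASEF mode (nitrogen, ~2.4 mbar) after a 120-min nanoflow C18 gradient at 60 °C. Synthetic peptide pools (~100 fmol/µL in 2% acetonitrile/0.1% formic acid, iRT standard spiked 1:40) were identified with MaxQuant, and 1/K0 was calibrated with three reference ions and aligned run-wise to the median iRT peptide deviation.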

Where [1] appears, read: charge state: 2, modification: Crotonyl.
[2] abbreviates: charge state: 2, modification: Dimethyl (K).
Where [3] appears, read: charge state: 3, modification: Dimethyl (K).
Setting [4] is: charge state: 2, modification: Formyl.
[5] abbreviates: charge state: 2, modification: Glutarylation.
Where [6] appears, read: charge state: 2, modification: GlyGly (K).
[7] abbreviates: charge state: 3, modification: GlyGly (K).
The mark [8] stands for this setting: charge state: 2, modification: Malonyl.
Where [9] appears, read: charge state: 2, modification: Methyl (K).
Where [10] appears, read: charge state: 3, modification: Methyl (K).
Where [11] appears, read: charge state: 2, modification: Propionyl.
[12] abbreviates: charge state: 2, modification: Succinyl.
The mark [13] stands for this setting: charge state: 3, modification: Trimethyl (K).
[14] abbreviates: charge state: 2, modification: hydroxyisobutyryl.
[15] abbreviates: charge state: 2, modification: Acetyl (K).
The mark [16] stands for this setting: charge state: 3, modification: Acetyl (K).
[17] abbreviates: charge state: 2, modification: Butyryl.
[18] abbreviates: charge state: 3, modification: Butyryl.
The mark [19] stands for this setting: charge state: 3, modification: Crotonyl.
The mark [20] stands for this setting: charge state: 3, modification: Formyl.
Where [21] appears, read: charge state: 3, modification: Glutarylation.
Where [22] appears, read: charge state: 3, modification: Succinyl.
Setting [23] is: charge state: 3, modification: hydroxyisobutyryl.
Where [24] appears, read: charge state: 2, modification: Nitro (Y).
[25] abbreviates: charge state: 2, modification: Phospho (Y).
Where [26] appears, read: charge state: 2, modification: HexNAc (ST).
The mark [27] stands for this setting: charge state: 3, modification: HexNAc (ST).
Setting [28] is: charge state: 2, modification: Citrullination (R).
Setting [29] is: charge state: 3, modification: Methyl (R).
The mark [30] stands for this setting: charge state: 2, modification: Hydroxyproline.
Setting [31] is: charge state: 3, modification: Hydroxyproline.

In turn, LEQVEKELLR [_LEQVEK(Crotonyl)ELLR_] yielded a collision cross section under setting [1] of 389.19 ± 0.8 Å².

Turning to LEQVEKELLR [_LEQVEK(Dimethyl (K))ELLR_], the collision cross section by setting is: under setting [2], 388.36 ± 0.25 Å²; under setting [3], 444.88 ± 2.1 Å².

For LEQVEKELLR [_LEQVEK(Formyl)ELLR_], the collision cross section under setting [4] came out at 382.29 ± 0.41 Å².

“LEQVEKELLR [_LEQVEK(Gluratylation)ELLR_]” displayed a collision cross section under setting [5] of 392.7 ± 0.12 Å².

Regarding LEQVEKELLR [_LEQVEK(GlyGly (K))ELLR_], the collision cross section is reported as 394.68 ± 0.37 Å² under setting [6] and 460.7 ± 1.1 Å² under setting [7].

The sequence LEQVEKELLR [_LEQVEK(Malonyl)ELLR_] gave a collision cross section under setting [8] of 382.93 ± 0.62 Å².

With LEQVEKELLR [_LEQVEK(Methyl (K))ELLR_], the collision cross section is, setting by setting: under setting [9], 386.67 ± 0.96 Å²; under setting [10], 448.53 ± 4.9 Å².

As for LEQVEKELLR [_LEQVEK(Propionyl)ELLR_], the collision cross section under setting [11] was 387.92 ± 0.44 Å².

On to LEQVEKELLR [_LEQVEK(Succinyl)ELLR_], for which, under setting [12], the collision cross section came to 384.25 ± 0.76 Å².

In the case of “LEQVEKELLR [_LEQVEK(Trimethyl (K))ELLR_]”, the collision cross section reads like this: (charge state: 2, modification: Trimethyl (K)) 387.44 ± 0.62 Å²; under setting [13], 446.8 ± 1.8 Å².

In turn, “LEQVEKELLR [_LEQVEK(hydroxyisobutyryl)ELLR_]” showed a collision cross section under setting [14] of 394.74 ± 0.29 Å².

Sequence “LFVGGIKEDTEEHHLR [_LFVGGIK(Acetyl (K))EDTEEHHLR_]” had a collision cross section under setting [15] of 494.34 Å² and a collision cross section under setting [16] of 543.04 ± 0.75 Å².

With “LFVGGIKEDTEEHHLR [_LFVGGIK(Butyryl)EDTEEHHLR_]”, the collision cross section reads like this: under setting [17], 500.41 ± 0.28 Å²; under setting [18], 545.89 ± 1.3 Å².

On to “LFVGGIKEDTEEHHLR [_LFVGGIK(Crotonyl)EDTEEHHLR_]”, for which the collision cross section under setting [19] was 544.97 ± 1.3 Å².

Under setting [20], “LFVGGIKEDTEEHHLR [_LFVGGIK(Formyl)EDTEEHHLR_]” had a collision cross section of 535.03 ± 1.3 Å².

In turn, “LFVGGIKEDTEEHHLR [_LFVGGIK(Gluratylation)EDTEEHHLR_]” returned a collision cross section under setting [5] of 501.63 ± 1.9 Å² and a collision cross section under setting [21] of 544.37 ± 0.97 Å².

For the sequence “LFVGGIKEDTEEHHLR [_LFVGGIK(GlyGly (K))EDTEEHHLR_]”, the collision cross section reads like this: under setting [6], 499.18 Å²; under setting [7], 544.61 ± 1.1 Å².

In the case of “LFVGGIKEDTEEHHLR [_LFVGGIK(Malonyl)EDTEEHHLR_]”, the collision cross section (charge state: 3, modification: Malonyl) worked out at 537.8 Å².

Take “LFVGGIKEDTEEHHLR [_LFVGGIK(Methyl (K))EDTEEHHLR_]”: under setting [10], the collision cross section amounted to 545.41 Å².

For “LFVGGIKEDTEEHHLR [_LFVGGIK(Succinyl)EDTEEHHLR_]”, the collision cross section by setting is: under setting [12], 497.55 Å²; under setting [22], 541.97 ± 1.1 Å².

As for “LFVGGIKEDTEEHHLR [_LFVGGIK(hydroxyisobutyryl)EDTEEHHLR_]”, the collision cross section under setting [14] was 501.81 Å² and the collision cross section under setting [23] was found to be 546.81 ± 1.2 Å².

Consider “LGDVYVNDAFGTAHR [_LGDVY(Nitro (Y))VNDAFGTAHR_]”, for which the collision cross section by setting is: under setting [24], 443.1 ± 0.55 Å²; (charge state: 3, modification: Nitro (Y)) 500.36 ± 1.2 Å².

Under setting [24], “LGGDLGTYVINK [_LGGDLGTY(Nitro (Y))VINK_]” returned a collision cross section of 371.97 ± 0.72 Å².

On to “LGGDLGTYVINK [_LGGDLGTY(Phospho (Y))VINK_]”, for which, under setting [25], the collision cross section was determined as 375.25 ± 0.063 Å².

LGHYATQLQK [_LGHYAT(HexNAc (ST))QLQK_]: the collision cross section runs as follows: under setting [26], 388.93 ± 0.68 Å²; under setting [27], 446.62 ± 0.17 Å².

“LGILPVGRGK [_LGILPVGR(Citrullination (R))GK_]”: the collision cross section under setting [28] is listed as 340.52 ± 0.26 Å².

For LGILPVGRGK [_LGILPVGR(Methyl (R))GK_], the collision cross section is reported as 355.35 ± 1.4 Å² (charge state: 2, modification: Methyl (R)) and 437.92 Å² under setting [29].

With LGNDFHTNKR [_LGNDFHTNK(Acetyl (K))R_], the collision cross section under setting [15] was determined as 373.86 ± 3.5 Å² and the collision cross section under setting [16] was determined as 444.24 ± 4 Å².

In turn, LGNDFHTNKR [_LGNDFHTNK(Butyryl)R_] showed a collision cross section under setting [17] of 377.65 ± 0.22 Å² and a collision cross section under setting [18] of 446.3 ± 2.8 Å².

LGNDFHTNKR [_LGNDFHTNK(Crotonyl)R_]: the collision cross section worked out at 379.22 ± 1.3 Å² under setting [1] and 445.34 ± 2 Å² under setting [19].

Turning to LGNDFHTNKR [_LGNDFHTNK(Dimethyl (K))R_], the collision cross section by setting is: under setting [2], 366.02 ± 0.57 Å²; under setting [3], 412.91 ± 1.1 Å².

Sequence LGNDFHTNKR [_LGNDFHTNK(Formyl)R_] yielded a collision cross section under setting [4] of 366.48 ± 1.5 Å² and a collision cross section under setting [20] of 438.07 ± 2.4 Å².

On to “LGNDFHTNKR [_LGNDFHTNK(Gluratylation)R_]”, for which the collision cross section under setting [5] was found to be 382 ± 0.1 Å² and the collision cross section under setting [21] turned out to be 434.71 ± 2.9 Å².

With LGNDFHTNKR [_LGNDFHTNK(GlyGly (K))R_], the collision cross section is 384.34 ± 1.5 Å² under setting [6] and 447.63 ± 1.2 Å² under setting [7].

The sequence LGNDFHTNKR [_LGNDFHTNK(Malonyl)R_] gave a collision cross section under setting [8] of 378.38 Å².

Consider LGNDFHTNKR [_LGNDFHTNK(Methyl (K))R_], for which the collision cross section runs as follows: under setting [9], 368.02 ± 0.46 Å²; under setting [10], 430.67 ± 6.2 Å².

For the sequence LGNDFHTNKR [_LGNDFHTNK(Propionyl)R_], the collision cross section reads like this: under setting [11], 374.29 Å²; (charge state: 3, modification: Propionyl) 447.46 ± 0.59 Å².

With LGNDFHTNKR [_LGNDFHTNK(Succinyl)R_], the collision cross section is, setting by setting: under setting [12], 377.52 ± 0.24 Å²; under setting [22], 436.15 ± 2.9 Å².

Regarding “LGNDFHTNKR [_LGNDFHTNK(Trimethyl (K))R_]”, under setting [13], the collision cross section was 415.91 ± 2.1 Å².

With “LGNDFHTNKR [_LGNDFHTNK(hydroxyisobutyryl)R_]”, the collision cross section by setting is: under setting [14], 382.96 ± 0.86 Å²; under setting [23], 448.25 ± 2.7 Å².

The sequence “LGNTISSLFGGGTTPDAK [_LGNTISSLFGGGT(HexNAc (ST))TPDAK_]” displayed a collision cross section under setting [26] of 471.52 Å².

As for LGPNDQYK [_LGPNDQY(Nitro (Y))K_], under setting [24], the collision cross section amounted to 332.94 ± 1.8 Å².

The sequence LGPNDQYK [_LGPNDQY(Phospho (Y))K_] gave a collision cross section under setting [25] of 336.82 ± 0.067 Å².

Regarding “LGPPGNPGPSGSPGPK [_LGPPGNP(Hydroxyproline)GPSGSPGPK_]”, the collision cross section runs as follows: under setting [30], 386.54 ± 0.27 Å²; under setting [31], 431.89 Å².

Sequence “LGPPGNPGPSGSPGPKGQK [_LGPPGNP(Hydroxyproline)GPSGSPGPKGQK_]” registered a collision cross section under setting [31] of 472.87 ± 1.2 Å².

“LGPPGNPGPSGSPGPKGQK [_LGPPGNPGPSGSP(Hydroxyproline)GPKGQK_]”: the collision cross section under setting [30] is 423.7 ± 3 Å².

With “LGSASSSHGSIQESHK [_LGS(HexNAc (ST))ASSSHGSIQESHK_]”, the collision cross section under setting [27] worked out at 519.96 ± 0.18 Å².

For the sequence LGSPSGKTGTCR [_LGSPSGK(Butyryl)TGTCR_], the collision cross section under setting [17] stood at 373.24 ± 0.22 Å².

Regarding “LGSPSGKTGTCR [_LGSPSGK(Gluratylation)TGTCR_]”, the collision cross section under setting [5] was determined as 369.43 ± 0.9 Å².

Under setting [7], “LGSPSGKTGTCR [_LGSPSGK(GlyGly (K))TGTCR_]” had a collision cross section of 454.35 ± 1.5 Å².

LGSPSGKTGTCR [_LGSPSGK(Malonyl)TGTCR_] displayed a collision cross section under setting [8] of 365.24 ± 0.013 Å².

Take LGSPSGKTGTCR [_LGSPSGK(Succinyl)TGTCR_]: the collision cross section under setting [12] was 368.12 ± 0.52 Å².

“LGSPSGKTGTCR [_LGSPSGK(hydroxyisobutyryl)TGTCR_]” had a collision cross section under setting [14] of 375.43 Å².

On to “LGTTPSVYGGAGGRGIR [_LGTTPSVYGGAGGR(Citrullination (R))GIR_]”, for which the collision cross section runs as follows: under setting [28], 423 ± 0.56 Å²; (charge state: 3, modification: Citrullination (R)) 500.66 ± 24 Å².

Sequence “LGTTPSVYGGAGGRGIR [_LGTTPSVYGGAGGR(Methyl (R))GIR_]” came in with a collision cross section under setting [29] of 525.94 ± 0.78 Å².

As for “LGVATVAKGVCGACK [_LGVATVAK(Acetyl (K))GVCGACK_]”, the collision cross section under setting [15] turned out to be 413.53 ± 0.49 Å².

Turning to “LGVATVAKGVCGACK [_LGVATVAK(Biotin)GVCGACK_]”, the collision cross section reads like this: (charge state: 2, modification: Biotin) 431.82 Å²; (charge state: 3, modification: Biotin) 507.7 Å².

On to “LGVATVAKGVCGACK [_LGVATVAK(Butyryl)GVCGACK_]”, for which the collision cross section stood at 418.39 ± 0.77 Å² under setting [17] and 491.64 Å² under setting [18].

Turning to “LGVATVAKGVCGACK [_LGVATVAK(Gluratylation)GVCGACK_]”, the collision cross section reads like this: under setting [5], 422.53 Å²; under setting [21], 500.02 Å².
